Target: both RasaN and SLP-76
Assay: supernatant depletion assay (pull-down titration); biotinylated SH2 domains on streptavidin-coated DynaBeads, washed once and serially diluted in 1x PBS; ADAP at 8 nM (PBS with 0.1% E. coli extract), 10 min at RT; unbound ADAP in the supernatant read by in-gel fluorescence; Kd estimated from the plot

Kd: 60 to 90 nM
B1: phosphorylated SNAP-ADAP fusion protein (ADAP amino acids 570-690) (domain or fragment)
chain: DYDSLKLKKDSLGAPSRPIEDDQEVYDDVAEQDDISSHSQSGSGGIFPPPPDDDIYDGIEEEDADDGFPAPPKQLDMGDEVYDDVDTSDFPVSSAEMSQGTNVGKAKTEEKDLKKLKKQEK
modifications: phosphotyrosine (in vitro phosphorylation by Fyn kinase, approx. 90% of each phosphorylation site; sites in Table S1); BG-647 dye on the SNAP-tag
